Measured values taken from paper PMC12914668.

Assays:
Assay in all cases: fluorescence polarisation; fluorescence anisotropy; 5 nM OG488-labelled histone monomer held constant, ligase complex titrated; 20 mM Tris-HCl pH 7.5, 10 mM NaCl, 5% glycerol, 1 mM DTT; 25 °C, 1 to 2.5 h; BSA-coated black 96-well plates
[1] = biological target: Xenopus laevis histone H4 V22C, Oregon Green 488 labelled (Xenopus laevis) (UniProt P62799)
[2] = biological target: Xenopus laevis histone H3, Oregon Green 488 labelled at C110 (Xenopus laevis) (UniProt P84233)
[3] = biological target: Xenopus laevis histone H2A K119C, Oregon Green 488 labelled (Xenopus laevis)

Kd [1]	Kd [2]	Kd [3]	Substance
48.4 nM	78.2 nM	–	NEDD8-ASB9-ELOB/C-CUL5-RBX2 (neddylated ASB9-CRL5) (from UniProt Q96DX5 1-294; Q15370 1-118; Q15369 1-112; Q93034 1-780; Q9UBF6 1-113; Q15843 1-76) (complex)
79.7 nM	187 nM	341 nM	ASB9-ELOB/C-CUL5-RBX2 (ASB9-CRL5), not neddylated (from UniProt Q96DX5 1-294; Q15370 1-118; Q15369 1-112; Q93034 1-780; Q9UBF6 1-113) (complex)
